Measured values published in US20260241018A1 (BIOCYTOGEN PHARMACEUTICALS BEIJING, published 2026).

Target: T1, 5T4 on NCI-H226 cells, NCI-H2030 cells and HCC827 cells (UniProt Q13641 32-420, limits assumed)
T1 construct: whole, on cells
T1 sequence (looked up): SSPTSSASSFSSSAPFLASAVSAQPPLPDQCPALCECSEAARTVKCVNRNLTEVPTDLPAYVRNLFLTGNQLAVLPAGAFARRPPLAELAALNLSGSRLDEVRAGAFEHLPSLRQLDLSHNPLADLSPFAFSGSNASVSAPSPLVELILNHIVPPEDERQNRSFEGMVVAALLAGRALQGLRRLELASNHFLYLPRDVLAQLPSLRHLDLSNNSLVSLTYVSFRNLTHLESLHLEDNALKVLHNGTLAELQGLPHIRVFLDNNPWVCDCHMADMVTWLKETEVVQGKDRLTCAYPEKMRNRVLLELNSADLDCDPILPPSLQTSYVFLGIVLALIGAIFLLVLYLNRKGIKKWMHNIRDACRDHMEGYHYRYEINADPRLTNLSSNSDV
Assay: flow cytometry on NCI-H226 cells, Alexa Fluor 647 anti-human IgG Fc secondary antibody, MFI
Description: NCI-H226 cells, NCI-H2030 cells or HCC827 cells were plated in a 96-well plate at a density of 2×10⁵ cells/well. Serially diluted purified anti-5T4 antibody 32G1 or the positive control PF06263507 analog-SI (maximum concentration: 20 μg/mL, 2-fold dilutions, 12 gradients) were added to each well and were incubated at 4° C. for 30 minutes. Then, after one wash with PBS, the cells were incubated with the secondary antibody Alexa Fluor® 647 anti human IgG Fcγ (Jackson ImmunoResearch Laboratories, Inc., Cat #: 109-606-170) at 4° C. for 15 minutes before flow cytometry analysis.
The cells were collected, and the mean fluorescence intensity (MFI) was determined.

B1: PF06263507 analog-SI (antibody, V domains shown)
VH: EVQLVESGGGLVQPGGSLRLSCAASGYTFTNFGMNWVRQAPGKGLEWVAWINTNTGEPRYAEEFKGRFTISRDNAKNSLYLQMNSLRAEDTAVYYCARDWDGAYFFDYWGQGTLVTVSS
VL: DIQMTQSPSSLSASVGDRVTITCKASQSVSNDVAWYQQKPGKAPKLLIYFATNRYTGVPSRFSGSGYGTDFTLTISSLQPEDFATYYCQQDYSSPWTFGQGTKVEIK
notes: PF06263507 is a humanized IgG1 monoclonal antibody targeting 5T4; also called positive control PF06263507 analog-SI
  binding result: binds
